Drawing on publication PMC10336096, this text covers NanoBiT Gi1 dissociation assay in HEK293A cells; fold higher concentration needed than the trapped monomer (CXCL8^1–65) to elicit a response from CXCR1, NanoBiT Gi1 dissociation assay in HEK293A cells; fold higher concentration needed than the wild-type CXCL8 to elicit a response from CXCR1 and stoichiometry N for two substances.

Assay [1] addresses CXC chemokine receptor 1 (CXCR1) (human) (UniProt P25024).
Assay [2] addresses trapped dimer (CXCL8^R26C) (human). The experiment in a line: native MS; nanoESI-MS under non-denaturing conditions, 200 mM ammonium acetate; 5‒20 μM protein (methods; 2–7 μM in the results for the wild type); monomer to dimer.
Assay [3] deals with wild-type CXCL8^1–72 (human). The description is as above.

Sequence of CXC chemokine receptor 1 (CXCR1) (human) (P25024 whole entry): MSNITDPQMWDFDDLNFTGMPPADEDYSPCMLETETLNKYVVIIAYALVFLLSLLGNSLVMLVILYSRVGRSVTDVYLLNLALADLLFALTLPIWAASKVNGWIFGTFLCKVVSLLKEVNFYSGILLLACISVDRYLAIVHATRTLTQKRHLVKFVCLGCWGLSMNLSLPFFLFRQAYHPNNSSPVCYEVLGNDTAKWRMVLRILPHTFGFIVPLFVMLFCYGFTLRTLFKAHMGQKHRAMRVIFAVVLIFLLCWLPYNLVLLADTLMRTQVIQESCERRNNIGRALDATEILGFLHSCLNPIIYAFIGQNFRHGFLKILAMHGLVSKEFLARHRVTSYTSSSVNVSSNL

For the substance trapped dimer (CXCL8^R26C) (ligand), in assay [1], the NanoBiT Gi1 dissociation assay in HEK293A cells; fold higher concentration needed than the trapped monomer (CXCL8^1–65) to elicit a response from CXCR1 is 32 fold and the NanoBiT Gi1 dissociation assay in HEK293A cells; fold higher concentration needed than the wild-type CXCL8 to elicit a response from CXCR1 was found to be 85 fold. The stoichiometry N in assay [2] was 2.
With wild-type CXCL8^1–72 (ligand), the stoichiometry N in assay [3] came out at 2.
